Protein production data for 13 sequences are collected here from a protein production outcome set (Wang et al. 2014).

The nature of the data set: label from the status in PepcDB records.
With “MLDPILLLGLVVAVLAMSLVAQALSSYFRIPFIIFLLIEGIIAGPEVLNLLNPALYVDGLSTIVAISVSVIVFDGGLHIDLKHIRMVQESVLKLTTIGVFVTFLGTTVLTSLLIEIPLELAALFGALVTATGPTVITPIVRNIQISHKLGKILELEGVLNDAASVILAAMVFEWVAAELSGTDAVVFILYRLGIGIALGSLSGFALRWFFTRGKAISNRTARLVSLTAVFSCFVFSEYLGNESGILAVAIFGIILGTSDFPYKDTIKEFKSDIVIVMLSLIFILLAAMIKFEYILRIGASGVALVLLLIFVIRPFAVFVSMWNSQIGTNEKLFISFVGPRGVVPTAVATYFAIKLDSMGIPGGQTLVGLVFLTVIITVFMSGSLSKKVAEVLEVIPMEILIIGGGKVGRILAERFDKRGENVVVVDISEDNCKKCMELGIRTVQGDAGDVNVLKKAGIENAKYVVATTNQDNTNLLFCQLAKASFGFRGDQLVARVNEIENLQAFWNLGIRSMSPAMTTAVVLDNMIGRPHLFSMCEVGGEGEMMEVKVTNPRVIGKAIKDIQFPEKSLLVMVQRGSDSIIAHGNLVLEYEDIVTVIGEGDAAKQTAAILHK”, the protein production result is “failed”.

In the case of “MLDTLVFGCVAFPLLAALAVYFVRGEAARRLIVPGAVAVTALSALGMAGSGPIMFAPKSFLGIGLDGLIAFLDFALLFYILYLGTKMRHLLIMGMTVLQIVGLIYLEFFLMDHGATVPGFYVDSLSLTMVLIISFVGGLICVYGLGYMKEHEEHLHLPQTKQPRFFFFVVLFLGAMNGLVLSNNLAWMYFFWEITTLCSFMLIGHDGTDEAKTNATRALWMNMVGGVAFVFALLFLQKGMGTLSVQDILARAVEPEMRTTAVLLPMAMLCLAGFTKSAQLPFQSWLCGAMVAPTPVSALLHSSTMVKAGVYLILRMAPGYAGTALSTGVALFGAFTFIVTSALAAGQSNGKKILAYSTIANLGLIVACAGINTAASVAAAMMLIIFHAISKGLLFLCVGAIEQKIGSRNIEDMRNLFERMPRTAVITVIGIVTMMLPPFGMLIAKWMAIESAAGAMSAMPLLVIMIALGSALTVLFWARWAGIMLGSSRPGFGPMQEEQDITIRLPLVSLVGGALVLSLLAPFVYTGLVEPAIAMYAKASAYGVSIGTIGNTMGAFAVYPLYLLLGAGFYYAWRAARNTPDSAASLPYMGGSQMTQDGVVGFNGPMNQFVPNAAGNYYLEKLFGEAQLTKPGNVVAIVLLILMIGGML”, the protein production result is on record as “failed”.

As for “MLEFTKRSLMNKYNINERVLELYERALNDVEKEFKYYDEIREYNQLKVLKAFQEERISESHFTNSSGYGYNDIGRDSLDRVYANIFNTESAFVRPHFVNGTHAIGAALFGNLRPNDTMMSICGMPYDTLHDIIGMDDSKKVGSLREYGVKYKMVDLKDGKVDINTVKEELKKDDSIKLIHIQRSTGYGWRKSLRIAEIAEIIKSIREVNENVIVFVDNCYGEFVEEKEPTDVGADIIAGSLIKNIGGGIATTGGYIAGKEEYVTQATFRVTVPGIGGECGSTFGVMRSLYEGLFMAPHVTIEAVKGAVFCARIMELAGFDVLPKYNDKRTDIIQAIKFNDEKKLIDFIKGIQTASPVDSFVQCEAWDMPGYEDKVIMAAGTFVQGASIELSADAPIREPYIGYLQGGLTFDHAKLGVLIALSKLIM”, the protein production entry is on record as “not failed”.

With “MLEHHFRSLKAIDRVRAQWLGPQIERYVQSLDELHTSNATVRQHIRALGHFNDFVIARGVTKLEALPDHVDAFVEYWHAGHAGWCKNNQDRAAVTAQSRVPVERMLCLALPDYTRPNNRPAMPFANTVPGFLPFLNDEKGLRQESQQRYLYTLRPFEAYLNRGGIALSGLEPAHISRFLEERAKTLHKAGMRDTAGALRIFLRYLHREGIVATDLVRSVPRGRIYRQASIPRAIGWQDVERLLTSIDRRSILGKRDYAILTLLASYGLRAREIAALCLDDFDWTHAQISIPMRKGGHSTRYPLSATVGDAVISYLQARRSDVPHRQVFLTARSPYIPMRHWTVSAMVGIRMRDIGIQVTRAGSHTLRHACVQHLVEADMPFKVIGDYVGHSHPSSTLVYGKVAVHKLRQIVLFQGEDVL”, the protein production result is “failed”.

With “MLELDGSGAEPLRDGDPRWIGPIPLIGRLGSGGMGRVYLGVHEGRYAAVKQLLPSVVAEDEDFLRRFGHELDNLARLPGEATAPLLAGDREARPPWFATAYVPGLTLTEALEVHGGPLPAGALWLLLREAAKGLAAVHALDMVHRDLKPSNVMLTLEGLTLIDFGVARAAEQSRLTRTGMVVGTPAYMSPEQASGRRASSGAVDVFALGSVLAYAASGRPPFGDESGHAVLYRIVHEEPDLGPLRELDPELADVVASCLDKDHEGRPTAAELLETAERHGPYEPPLWPEALTERLTERAAFVTKLPERADLPEPEPEPERDPGPGPGSAVLGRRDPGRSDHRRRHRVLFAVVPVVVAAGATLAVQLLPYTFAPGDRADASPSSSAPVSSAPAASPAGPGKASRTATPDQDRSASPSRSPGEQGDRRGDADGGGGAAGGSQGDADAGGAGSGSGSGSGSAGDGGAGAGSGAGSGDGSGSDSGSGSGADSGSGAGSGSGSGSGSGSGDGGASGSGVFTLKNAKNGRCLTTAHADAPYDGDCTGDAATWTFRSRPDGTVWIINGLLGRCIYTAAIGHPVFSFPCGRTTGQEWRVGSGGTLKNAATGGCVTVSAMSGTGVRNEACEQSAAQRWTRS”, the protein production result is given as “failed”.

Regarding “MLERILEPEVMDTEAEAMDYDAMDFQAVNLAFAQRACQLGPSKATVLDAGTGTARIPILLAQLRPAWQITAIDFARSMLAIAKENVIAAGCETQICLEFVDAKQLPYANGSFDGVIANSLCHHLPRPLDFLREVKRVLKPHGFLLIRDLIRPESPEKLADFVTAIGSDYNDQQRKLFADSLHASLTIAEIQDYLQHLGWVGDDGPNLELHLYQSSDRHWTLEKKFQSSTIVQR”, the protein production entry was “failed”.

“MLESFGEHRWLLWAVASAVLACTEMLSGEFTLLMLAAGAGAGAITAAIVPGMWLLQVIVAAVVAALLLTVLRPTLLRRVREAPGYRSALDKLVGSDGVATSDITDGHGQVKVDGEEWSARALEPGSTIAAGEKIEVYEIDGATLVVYPVFRSLSS”: the protein production entry is on record as “failed”.

As to “MLETLYAFFDLGQFSQSPINGSHNPGLVILSYCVALLASYTAILTLERVQIYQAKVARYSWLIVSAVISGVGVWSMHFIGMLAFELHLPMSHSVLLTLISVVPAIVGSFIAMKIQMSLSSVRATLIAGTVLGAGIGLMHYTGMAAMEMSAHLRYDPLWFVLSVFVAVSLGIIALLAYRHYKKSERTSWFRRRSAQIVVAAIIALAISGMHYTAMIAANFYPTRAPDAVFSGHGNWLAYVVGIGSCLTAIMAIIASQIDRRLQQQQKLAQMSAEQLYEVISAIDDGLLLFDEHNRVLLANQAFTRLTGDDLERIKGSKLNIEDYIERSDKLLENIKNSLARRVAWQGKVNVRKRSGTTFPVRLSISKVRYNQQKERHFVATVTDISAEVESSERIRYLAYNDALTGLANRRSLLDHLQDQLATYKEAGQNGALILCDIDKFKILNNTLGSDMGDLLLKRVAERLQSSTKANSFLARLSANEFAVVLTGLERGNSVNIKQQLLTRIYQLLDQLQQPYQLNSYTHLCSFSAGASLFDDSESNAETLMTQSGLALSHSKRKGTGEVSLFRQEFADAVSKRVKLEEQLRNAIKQNEFELYLQPQVNIESKPTGAEALIRWKQSDGRFVSPADFIPLAEETGLIVPLGYWITERACQILQQWQQSPEKAKMQLSINVSAKQFQQPEFVEQVQLLVEKYEIRPHRLKLELTESLLMDDISSVTNKIKQLKRLGIEFALDDFGTGYSSLSYLMQIPFDTLKIDVSFVRNMLDSMEKAQIVYTIIQLGESLKLNIVAEGVETEEQFNYLARLNCDTFQGYLFSKPVPESEFLADKTAP”, the protein production result is on record as “failed”.

For “MLEVVYIVGAFGSPLLTPPTLAVAGFLIAVLMGLEYGVLWVLTGESLNRELILVISNIVYSIAWSITALPFTPIYYTLQPYFSQPLLIYLYLALFIGSILLGVIPAIMYIRKYLQFNKIQKEFKQLELDYKSINQEYSEINTRLNKAKEEINNVMDKINKAKELHETALRDPDLIVTALDKKPEIPEVIRPNVNYVVAGLGGTGTALLEALIDYLVSKNVIKEDGTNPFLFVAFDTNQASIARLRKKYEYTPVGKLLYTFNNFEALTTANIISHNPWLAGLNVDVIQGSGMKRAIGYASYNTVKEAMMEDILRRLSDLIAKTRTNRIFLIVFTALGGGTGSGSFIHFTKDFISRLGRITGDSEPYVRVSGM”, the protein production result is recorded as “failed”.

In the case of “MLFDEKEILAITRWAKLYANQSPDRILLGSNDIPPEYRAAVATQIELWPRLRNKLPQWAGISSLYIPSRLSLEQSSGAVTSSYKSRFIREGTKVVDLTGGLGIDFIALMSKASQGIYIERNDETAVAARHNIPLLLNEGKDVNILTGDFKEYLPLIKTFHPDYIYVDPARRSGADKRVYAIADCEPDLIPLATELLPFCSSILAKLSPMIDLWDTLQSLLHVQELHVVAAHGEVKELLVRMSLNEATIPPEKVPIHAINLLLEDTVIPFIFTMEEERSISIPYTDSIDKYVYEPHTALLKAGAFKTVAYRLGLRKLHPNSHLYTSEAYESAFPGRTFVLEEIIPFSTSVLKQLRKVVPQASISCRNFPLSPIELRQRSKMADGGEKTLMGTTMADGKKVLLLLRKAE”, the protein production result was “not failed”.

In the case of “MLFFADRSPFVRPLSGYAPVTPAAPRSTGSAAAPPPSPAVLDDRSGTEGDVTPMMAQYLAVKAAHPDCLLFYRMGDFYEMFFEDAVKAAETLDIALTKRGRHAGADIPMCGVPIHSHEGYLSRLIRAGIKVAICEQMEDPAEARRQRGYKAVVRRDVIRVVTAGTLTEDELLDARAHNYLAAVVRLRDAVGMAWVDVSTGDLVAQPLAEADIGPALARLAPGEVLMPEKLAGDPALREILAPLAGRISPLPASRFDSENARKRVEGLFGVKALDGFGGFGRAEVAAIGALIDYVELTQVGRLPRLSPPRRLSLGAILEIDGATRRNLELTETLGGGRKGSLLARIDCTVTGAGARLLAERLAAPLTDPAQIGARLDGVGFLVSAERVRGDLRDTLRGCPDIARALSRLSLGRGGPRDLAAIGEALSRIPALRVLVVGAGLGEPPTELTAALIDLGSHEGLVDLLGRALDADLPLLARDGGFIRPGYDAGLDELRALRDEGRRLIAGLQARYASETAIPALKIKHNNVLGYFIEVAAGRADKLMAAGGPFLHRQTLASQVRFTTVELSELEDKIRGAADKALALEQALFATLCAEVLGCAADIARAANGLACLDVAAALADLAARERYARPVVDNSTAFRIHKGRHPVVEAALADQAGPAFVANDCDLAPDQRLWLLTGPNMAGKSTFLRQNALIAVLAQMGSFVPAESAEIGVIDRLFSRVGAADDLARGRSTFMVEMVETAAILNQATERSLVILDEIGRGTATYDGLSIAWATVESLHDATRCRALFATHYHELTALASRLDRLSCHTLRIKEWKDQVVFLHEVGPGAADRSYGIHVAKLAGLPAAVIARAEQVLAILEKGDASSAATRLADDLPLFAAARPRAGLPTPPPGPHPLAEALNAINPDEMTPREALDALYRLKAVMKRE”, the protein production result is “failed”.

With “MLFIKPADLREIVTFPLFSDLVQCGFPSPAADYVEQRIDLNQLLIQHPSATYFVKASGDSMIDGGISDGDLLIVDSAITASHGDIVIAAVDGEFTVKKLQLRPTVQLIPMNSAYSPITISSEDTLDVFGVVIHVVKAMR”, the protein production entry is “failed”.

As for “MLFISATNTNAGKTTCARLLAQYCNACGVKTILLKPIETGVNDAINHSSDAHLFLQDNRLLDRSLTLKDISFYRYHKVSAPLIAQQEEDPNAPIDTDNLTQRLHNFTKTYDLVIVEGAGGLCVPITLEENMLDFALKLKAKMLLISHDNLGLINDCLLNDFLLKSHQLDYKIAINLKGNNTAFHSISLPYIELFNTRSNNPIVIFQQSLKVLMSFALK”, the protein production entry is “not failed”.
